B1: 人源单克隆抗体3C11 (antibody, V domains shown)
VH: EVQLVESGGGLVQPGGSLRLSCAASGFTVSRNYMSWVRQAPGKGLEWVSVIYSGGSTYYADSVKGRFTISRDNSKNTLYLQMNSLRAEDTAVYYCARGLVASYRYGMDVWGQGTTVTVSS
VL: DIQMTQSPVSLSASIGDRVTITCQASQDITNYLNWYQQKPGKAPKLLIYDASNLETGVPSRFSGSGSGTDFTFTISSLQPEDIATYYCHQYDNLPVTFGGGTKVEIK
B2: 人源单克隆抗体5C6 (antibody, V domains shown)
VH: EVQLVESGGGVVQPGRSLRLSCAASGFTFRTYAMHWVRQAPGKGLEWVAVMWNDGSNKYYADSVKGRFTISRDNSKNTLYLEMNSLRAEDTAVYYCAREGVAAAGSSSDAFDIWGQGTMVTVSS
VL: DIQMTQSPSSLSASVGDRVTITCRASQSISNFLNWYQQKPGKAPKLLIYAASSLQSGVPSRFSGSGSGTDFTLTISSLQPEDFATYYCQQSYSTLYSFGQGTKLEIK
B3: 人源单克隆抗体6G9 (antibody, V domains shown)
VH: QVQLVQSGAEVKKLGASVKVSCKASGYSFTDYYIHWVRQAPGQGLEWMGWINPISGGTNYAQKFQGRVTMTRDTSITTVYMELSRLRSDDTAVYYCARDLPPYNWNGPLRSQRFDCWGQGTLVTVSS
VL: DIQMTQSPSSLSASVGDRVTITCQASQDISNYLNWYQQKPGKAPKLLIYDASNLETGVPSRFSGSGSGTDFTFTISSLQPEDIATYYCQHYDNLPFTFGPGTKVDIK

These binders were tested against SARS-CoV-2Sde18 (SARS-CoV-2 S蛋白, C末端截短18个氨基酸) on VSV pseudovirus SARS-CoV-2VSVpp (SARS-CoV-2, UniProt P0DTC2 14-1255) (assay: cell-based or functional assay).
For B1, the 假病毒感染阻断率 was 80 % (at 0.22 μg/mL) and the “半抑制浓度(IC50), 假病毒中和 (GFP阳性细胞数减少)” value was 62.9 ng/mL. B2 was tested, and the 假病毒感染阻断率 was 80 % (at 0.22 μg/mL) and the “半抑制浓度(IC50), 假病毒中和 (GFP阳性细胞数减少)” value was 4.06 ng/mL. In the case of B3, the 假病毒感染阻断率 is reported as 80 % (at 0.22 μg/mL) and the “半抑制浓度(IC50), 假病毒中和 (GFP阳性细胞数减少)” value is reported as 0.56 ng/mL.
